In assay [1] the target is PbHARP A118E/A121E mutant (Planctomycetes bacterium GWF2_40_8). The assay can be described thus: SEC; PbHARP wild type and mutants; Superdex 200 Increase 10/300 GL, 20 mM Tris-HCl pH 8.0, 300–500 mM salt for the wild type (it precipitates at lower salt); 300 ug protein, 0.4 mL/min. In general terms: In gel filtration, larger molecules generally elute earlier.
Assay [2] concerns the target Thermococcus celer HARP (Thermococcus celer). Kind of assay: SEC; TcHARP at higher salt (200–500 mM); Superdex 200 Increase 10/300 GL, 20 mM Tris-HCl pH 8.0.
In assay [3] the target is Planctomycetes bacterium HARP (homolog of Aquifex RNase P) (Planctomycetes bacterium GWF2_40_8). The assay can be described thus: cross-linking; BS3 (0, 0.01, 0.03 mM), 25 °C 1 h, 37.6 uM PbHARP without or with 45.1 uM His-7bp pre-tRNA and 10 mM CaCl2; 20 mM HEPES pH 7.9, 500 mM NaCl; SDS-PAGE.
Assay [4] shares this target. The assay can be described thus: SEC; PbHARP wild type and mutants; Superdex 200 Increase 10/300 GL, 20 mM Tris-HCl pH 8.0, 300–500 mM salt for the wild type (it precipitates at lower salt); 300 ug protein, 0.4 mL/min.

Values joined by “and” are separate entries in the source; they are usually repeats but may differ in a detail not shown here. Identical values can stand only once.

Usually stoichiometry N stands for a count of units in the complex or per binding partner.

Regarding PbHARP A118E/A121E mutant (enzyme), the stoichiometry N in assay [1] is 2.

As for Thermococcus celer HARP (enzyme), the stoichiometry N in assay [2] came out at 2.

Consider “Planctomycetes bacterium HARP (homolog of Aquifex RNase P) (enzyme)”, for which the stoichiometry N was 2 and 4 in assay [3]; 2 in assay [4].
